Data: PMC9482650, “Quantitative fragmentomics allow affinity mapping of interactomes” (Nature Communications, 2022)

T1: NHERF3_1, Q5T2W1
T1 sequence (Q5T2W1 4-100, limits assumed, looked up): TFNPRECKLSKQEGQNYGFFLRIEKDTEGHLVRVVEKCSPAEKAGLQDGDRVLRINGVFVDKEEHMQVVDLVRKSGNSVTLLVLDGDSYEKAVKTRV

T2: LIN7A, O14910
T2 sequence (O14910 103-200, limits assumed, looked up): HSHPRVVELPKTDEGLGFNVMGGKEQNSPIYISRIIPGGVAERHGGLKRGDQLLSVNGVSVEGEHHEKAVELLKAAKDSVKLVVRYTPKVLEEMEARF

T3: APBA3_1, O96018
T3 sequence (O96018 389-490, limits assumed, looked up): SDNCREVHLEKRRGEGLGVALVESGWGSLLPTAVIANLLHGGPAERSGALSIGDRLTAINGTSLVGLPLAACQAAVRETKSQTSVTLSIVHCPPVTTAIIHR

T4: TJP3_3, O95049
T4 sequence (O95049 375-456, limits assumed, looked up): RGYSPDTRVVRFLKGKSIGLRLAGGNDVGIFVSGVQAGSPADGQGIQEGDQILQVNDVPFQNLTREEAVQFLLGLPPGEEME

T5: DLG3_2, Q92796
T5 sequence (Q92796 221-321, limits assumed, looked up): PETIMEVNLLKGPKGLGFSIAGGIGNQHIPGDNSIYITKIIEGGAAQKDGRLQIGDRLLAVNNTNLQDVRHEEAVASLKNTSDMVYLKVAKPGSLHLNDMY

T6: PARD3B_1, Q8TEW8
T6 sequence (Q8TEW8 196-299, limits assumed, looked up): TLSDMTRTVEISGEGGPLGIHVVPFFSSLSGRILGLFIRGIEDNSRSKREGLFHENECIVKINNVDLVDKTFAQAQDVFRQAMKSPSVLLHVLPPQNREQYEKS

T7: RADIL, Q96JH8
T7 sequence (Q96JH8 971-1071, limits assumed, looked up): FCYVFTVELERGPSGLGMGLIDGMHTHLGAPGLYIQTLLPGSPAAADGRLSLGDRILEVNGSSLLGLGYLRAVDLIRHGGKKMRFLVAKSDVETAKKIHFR

T8: TX1BP3, O14907
T8 sequence (O14907 10-122, limits assumed, looked up): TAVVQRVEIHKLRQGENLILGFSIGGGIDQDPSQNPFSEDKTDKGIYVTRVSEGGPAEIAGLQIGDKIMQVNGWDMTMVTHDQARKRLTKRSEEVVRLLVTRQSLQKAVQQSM

T9: SNTG1, Q9NSN8
T9 sequence (Q9NSN8 52-150, limits assumed, looked up): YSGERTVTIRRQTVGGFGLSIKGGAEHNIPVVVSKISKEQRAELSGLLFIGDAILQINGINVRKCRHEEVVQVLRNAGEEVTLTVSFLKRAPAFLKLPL

T10: DFNB31_3, Q9P202
T10 sequence (Q9P202 811-907, limits assumed, looked up): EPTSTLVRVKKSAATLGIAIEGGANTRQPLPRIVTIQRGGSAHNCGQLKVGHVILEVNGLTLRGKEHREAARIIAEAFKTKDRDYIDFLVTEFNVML

T11: SYNJ2BP, P57105
T11 sequence (P57105 8-110, limits assumed, looked up): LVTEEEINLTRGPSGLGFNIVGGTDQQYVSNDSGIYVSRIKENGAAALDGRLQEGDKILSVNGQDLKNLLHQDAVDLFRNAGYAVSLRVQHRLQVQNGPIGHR


Legend:
Assay in all cases: holdup assay
Parameters in all cases: key: below the threshold = too weak to quantify, mostly under pKd 3.1 to 4
Conditions in all cases: plain residues with an end cap or a label only (N-terminal biotin on a linker: ado-ado)
MAGI2_6, Q86UL8 = molecular target: MAGI2_6, Q86UL8
NHERF3_1, Q5T2W1 = molecular target: T1, NHERF3_1, Q5T2W1
GRIP2_5, Q9C0E4 = molecular target: GRIP2_5, Q9C0E4
LIN7A, O14910 = molecular target: T2, LIN7A, O14910
Inadl_9, Q8NI35 = molecular target: Inadl_9, Q8NI35
APBA3_1, O96018 = molecular target: T3, APBA3_1, O96018
NOS1, P29475 = molecular target: NOS1, P29475
TJP3_3, O95049 = molecular target: T4, TJP3_3, O95049
DLG2_2, Q15700 = molecular target: DLG2_2, Q15700
MAGI2_3, Q86UL8 = molecular target: MAGI2_3, Q86UL8
DLG5_1, Q8TDM6 = molecular target: DLG5_1, Q8TDM6
DLG3_2, Q92796 = molecular target: T5, DLG3_2, Q92796
GORASP2, Q9H8Y8 = molecular target: GORASP2, Q9H8Y8
IL16_3, Q14005 = molecular target: IL16_3, Q14005
FRMPD4, Q14CM0 = molecular target: FRMPD4, Q14CM0
MAGI1_1, Q96QZ7 = molecular target: MAGI1_1, Q96QZ7
FRMPD2_1, Q68DX3 = molecular target: FRMPD2_1, Q68DX3
PARD3B_1, Q8TEW8 = molecular target: T6, PARD3B_1, Q8TEW8
FRMPD3, Q5JV73 = molecular target: FRMPD3, Q5JV73
RADIL, Q96JH8 = molecular target: T7, RADIL, Q96JH8
TX1BP3, O14907 = molecular target: T8, TX1BP3, O14907
CASK, O14936 = molecular target: CASK, O14936
SNTG1, Q9NSN8 = molecular target: T9, SNTG1, Q9NSN8
DLG2_3, Q15700 = molecular target: DLG2_3, Q15700
DFNB31_3, Q9P202 = molecular target: T10, DFNB31_3, Q9P202
IL16_4, Q14005 = molecular target: IL16_4, Q14005
SYNJ2BP, P57105 = molecular target: T11, SYNJ2BP, P57105

FRMPD2_1, Q68DX3, sequence (Q68DX3 770-861): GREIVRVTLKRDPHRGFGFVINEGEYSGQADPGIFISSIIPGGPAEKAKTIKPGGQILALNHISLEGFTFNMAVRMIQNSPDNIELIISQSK
MAGI2_6, Q86UL8, sequence (Q86UL8 1141-1229): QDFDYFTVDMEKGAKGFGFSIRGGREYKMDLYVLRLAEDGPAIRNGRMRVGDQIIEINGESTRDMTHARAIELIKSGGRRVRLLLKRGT
FRMPD4, Q14CM0, sequence (Q14CM0 67-160): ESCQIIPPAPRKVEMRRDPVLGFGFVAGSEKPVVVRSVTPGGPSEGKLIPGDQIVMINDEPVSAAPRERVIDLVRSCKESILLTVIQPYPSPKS
MAGI1_1, Q96QZ7, sequence (Q96QZ7 1-106): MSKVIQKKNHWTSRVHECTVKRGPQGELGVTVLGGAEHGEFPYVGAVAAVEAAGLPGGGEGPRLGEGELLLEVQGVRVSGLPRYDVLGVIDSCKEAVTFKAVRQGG
DLG5_1, Q8TDM6, sequence (Q8TDM6 617-713): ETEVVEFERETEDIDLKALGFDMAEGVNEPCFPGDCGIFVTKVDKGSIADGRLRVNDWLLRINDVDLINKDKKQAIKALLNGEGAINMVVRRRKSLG
CASK, O14936, sequence (O14936 487-570): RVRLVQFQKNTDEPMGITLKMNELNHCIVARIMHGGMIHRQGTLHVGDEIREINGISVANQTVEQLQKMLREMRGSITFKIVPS
NOS1, P29475, sequence (P29475 9-101): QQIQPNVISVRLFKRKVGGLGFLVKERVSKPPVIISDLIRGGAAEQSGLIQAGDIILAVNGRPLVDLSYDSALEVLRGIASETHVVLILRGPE
FRMPD3, Q5JV73, sequence (Q5JV73 12-100): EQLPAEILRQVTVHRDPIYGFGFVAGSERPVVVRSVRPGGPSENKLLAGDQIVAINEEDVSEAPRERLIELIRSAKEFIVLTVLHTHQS
Inadl_9, Q8NI35, sequence (Q8NI35 1530-1615): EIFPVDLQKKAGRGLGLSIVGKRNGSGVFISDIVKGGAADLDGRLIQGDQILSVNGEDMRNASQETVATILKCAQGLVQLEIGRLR
IL16_4, Q14005, sequence (Q14005 1229-1329): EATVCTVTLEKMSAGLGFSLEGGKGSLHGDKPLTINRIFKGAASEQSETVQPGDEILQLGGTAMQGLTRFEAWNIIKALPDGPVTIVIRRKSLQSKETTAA
MAGI2_3, Q86UL8, sequence (Q86UL8 600-682): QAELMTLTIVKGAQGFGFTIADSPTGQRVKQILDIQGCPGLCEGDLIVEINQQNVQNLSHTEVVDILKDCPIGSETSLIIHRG
GRIP2_5, Q9C0E4, sequence (Q9C0E4 544-642): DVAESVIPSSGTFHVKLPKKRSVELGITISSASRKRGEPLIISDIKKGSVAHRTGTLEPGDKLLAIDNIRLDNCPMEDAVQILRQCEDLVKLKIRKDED
IL16_3, Q14005, sequence (Q14005 1107-1207): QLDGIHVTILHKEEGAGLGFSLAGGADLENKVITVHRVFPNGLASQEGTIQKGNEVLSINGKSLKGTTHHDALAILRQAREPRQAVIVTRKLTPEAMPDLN

| Binder | pKd (MAGI2_6, Q86UL8) | pKd (NHERF3_1, Q5T2W1) | pKd (GRIP2_5, Q9C0E4) | pKd (LIN7A, O14910) | pKd (Inadl_9, Q8NI35) | pKd (APBA3_1, O96018) | pKd (NOS1, P29475) | pKd (TJP3_3, O95049) | pKd (DLG2_2, Q15700) | pKd (MAGI2_3, Q86UL8) | pKd (DLG5_1, Q8TDM6) | pKd (DLG3_2, Q92796) | pKd (GORASP2, Q9H8Y8) | pKd (IL16_3, Q14005) | pKd (FRMPD4, Q14CM0) | pKd (MAGI1_1, Q96QZ7) | pKd (FRMPD2_1, Q68DX3) | pKd (PARD3B_1, Q8TEW8) | pKd (FRMPD3, Q5JV73) | pKd (RADIL, Q96JH8) | other results |
| --- | --- | --- | --- | --- | --- | --- | --- | --- | --- | --- | --- | --- | --- | --- | --- | --- | --- | --- | --- | --- | --- |
| SMLNRRTTPV [CACNG4, Q9UBN1] | below the threshold | below the threshold | below the threshold | below the threshold | below the threshold | below the threshold | 3.98 | below the threshold | 4.51 | below the threshold | below the threshold | 4.46 | below the threshold | below the threshold | below the threshold | below the threshold | 3.54 | below the threshold | below the threshold | below the threshold | pKd (TX1BP3, O14907): 4.85; pKd (CASK, O14936): below the threshold; pKd (SNTG1, Q9NSN8): below the threshold; pKd (DLG2_3, Q15700): 4.89; pKd (DFNB31_3, Q9P202): below the threshold; pKd (IL16_4, Q14005): below the threshold; pKd (SYNJ2BP, P57105): 5.12 |
| PELESKESVL [SLC1A4, P43007] | 3.93 | 4.51 | below the threshold | below the threshold | below the threshold | below the threshold | 3.65 | below the threshold | 3.71 | below the threshold | below the threshold | 3.79 | below the threshold | below the threshold | 3.85 | below the threshold | below the threshold | 4.21 | below the threshold | below the threshold | pKd (TX1BP3, O14907): 4.1; pKd (CASK, O14936): below the threshold; pKd (SNTG1, Q9NSN8): 3.68; pKd (DLG2_3, Q15700): below the threshold; pKd (DFNB31_3, Q9P202): below the threshold; pKd (IL16_4, Q14005): below the threshold; pKd (SYNJ2BP, P57105): 4.34 |
| LSEFKAMDSF [CTNNA2, P26232] | below the threshold | below the threshold | below the threshold | below the threshold | below the threshold | below the threshold | below the threshold | below the threshold | below the threshold | below the threshold | below the threshold | 4.16 | below the threshold | below the threshold | below the threshold | below the threshold | below the threshold | 3.59 | below the threshold | below the threshold | pKd (TX1BP3, O14907): below the threshold; pKd (CASK, O14936): below the threshold; pKd (SNTG1, Q9NSN8): below the threshold; pKd (DLG2_3, Q15700): 3.72; pKd (DFNB31_3, Q9P202): below the threshold; pKd (IL16_4, Q14005): below the threshold; pKd (SYNJ2BP, P57105): below the threshold |

Continued, in another order:

| pKd (MAGI2_6, Q86UL8) | pKd (NHERF3_1, Q5T2W1) | pKd (GRIP2_5, Q9C0E4) | pKd (LIN7A, O14910) | pKd (Inadl_9, Q8NI35) | pKd (APBA3_1, O96018) | pKd (NOS1, P29475) | pKd (TJP3_3, O95049) | pKd (DLG2_2, Q15700) | pKd (MAGI2_3, Q86UL8) | pKd (DLG5_1, Q8TDM6) | pKd (DLG3_2, Q92796) | pKd (GORASP2, Q9H8Y8) | pKd (IL16_3, Q14005) | pKd (FRMPD4, Q14CM0) | pKd (MAGI1_1, Q96QZ7) | pKd (FRMPD2_1, Q68DX3) | pKd (PARD3B_1, Q8TEW8) | pKd (FRMPD3, Q5JV73) | pKd (RADIL, Q96JH8) | Binder | other results |
| --- | --- | --- | --- | --- | --- | --- | --- | --- | --- | --- | --- | --- | --- | --- | --- | --- | --- | --- | --- | --- | --- |
| below the threshold | below the threshold | below the threshold | 3.49 | below the threshold | below the threshold | below the threshold | below the threshold | below the threshold | below the threshold | below the threshold | below the threshold | below the threshold | below the threshold | 3.7 | 3.51 | below the threshold | 3.72 | below the threshold | below the threshold | EEDTAEKDEL [HSPA5, P11021] | pKd (TX1BP3, O14907): below the threshold; pKd (CASK, O14936): below the threshold; pKd (SNTG1, Q9NSN8): below the threshold; pKd (DLG2_3, Q15700): below the threshold; pKd (DFNB31_3, Q9P202): 4.19; pKd (IL16_4, Q14005): 3.51; pKd (SYNJ2BP, P57105): 3.52 |
| 4.67 | 5.78 | below the threshold | 3.66 | 4.09 | below the threshold | below the threshold | below the threshold | 4.63 | below the threshold | below the threshold | 4.79 | 3.82 | below the threshold | below the threshold | below the threshold | below the threshold | below the threshold | below the threshold | 4.48 | RQSILFSTEV [BCR, P11274] | pKd (TX1BP3, O14907): 4.82; pKd (CASK, O14936): below the threshold; pKd (SNTG1, Q9NSN8): 4.67; pKd (DLG2_3, Q15700): 4; pKd (DFNB31_3, Q9P202): below the threshold; pKd (IL16_4, Q14005): 3.54; pKd (SYNJ2BP, P57105): 5.28 |
